According to paper PMC5507604, “Structure of the Neisseria Adhesin Complex Protein (ACP) and its role as a novel lysozyme inhibitor” (PLoS Pathogens, 2017):

What was measured:
[1] = target: hen egg-white lysozyme (Hewl) (hen (chicken)) (UniProt P00698)
[2] = target: human lysozyme (HL) (human) (UniProt P61626)
human lysozyme (HL) = target: T1, human lysozyme (HL) (human, UniProt P61626 19-148, NT-647-NHS fluorescent dye (in the MST experiment only)); test: MST; NT-647-labelled rHL (8.3 nM) constant, 16 two-fold serial dilutions of 2.5 mM rNm-ACPI mixed 1:1; 50 mM Tris pH 7.4, 150 mM NaCl, 10 mM MgCl2, 0.05% (v/v) Tween-20; 20% and 40% MST power, LED 20%; triplicate; settings: both partners purified
T1 construct: human C-type lysozyme; MST used labelled recombinant HL; also called rHL; recombinant HL; source: bought: Sigma-Aldrich (recombinant HL, MST)
T1 sequence (looked up): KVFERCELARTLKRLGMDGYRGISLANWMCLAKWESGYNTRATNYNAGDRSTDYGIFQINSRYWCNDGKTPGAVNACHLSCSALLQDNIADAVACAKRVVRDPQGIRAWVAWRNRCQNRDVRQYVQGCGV

Sequence of hen egg-white lysozyme (Hewl) (hen (chicken)) (P00698 19-147): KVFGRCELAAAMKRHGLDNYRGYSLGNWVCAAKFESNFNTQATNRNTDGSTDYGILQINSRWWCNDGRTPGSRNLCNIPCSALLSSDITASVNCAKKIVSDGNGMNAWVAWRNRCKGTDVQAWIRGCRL

## Nm-ACPI triple mutant Asn79Ala/Tyr84Ala/Gly95Ala (natural protein)
[1]
  inhibition of Hewl (EnzChek assay, initial rate period) compared with wild-type Nm-ACPI (% reduced activity): 39

## recombinant Neisseria gonorrhoeae Adhesin Complex Protein (rNg-ACP) (natural protein)
[2]
  protection of M. lysodeikticus cells (1 mg/ml) against lysis by HL (2 μg/ml), OD 595 nm over 2 h and at 24 h, rNg-ACP 0-0.5 μg/ml; ~30–60% protection at 0.1 μg/ml, not protective below 0.1 μg/ml: 80 to 100 % protection

B1: recombinant Neisseria meningitidis Adhesin Complex Protein Type I (rNm-ACPI) (natural protein)
chain: AGTDNPTVAKKTVSYVCQQGKKVKVTYGFNKQGLTTYASAVINGKRVQMPVNLDKSDNVETFYGKEGGYVLGTGVMDGKSYRKQPIMITAPDNQIVFKDCSPR
notes: Adhesin Complex Protein (ACP) Type I, encoded by Allele 1, N. meningitidis serogroup B strain MC58 (NMB2095/NEIS2075); mature polypeptide of 103 residues (amino acids 22-124), mass 12,306 Da with the tag; disulphide bond Cys38-Cys121; Cloned between NdeI and XhoI of pET22b(+); The same construct, 15N-labelled, was used for NMR; also called NMB2095; NEIS2075; source: E. coli BL21 (DE3) pLysS, …
Human lysozyme (HL)
  Kd: 11 µM
